Source: publication PMC2851401 (Journal of molecular biology, 2010)

How the values were obtained:
[1] = target: Rev (Human immunodeficiency virus 1) (UniProt P04325); conditions: cited from earlier work
[2] = target: biotinylated HIV-1 Rev with C-terminal Avitag (HIV-1, UniProt P04616); experiment: ELISA
Sequence of biotinylated HIV-1 Rev with C-terminal Avitag (P04616 whole entry): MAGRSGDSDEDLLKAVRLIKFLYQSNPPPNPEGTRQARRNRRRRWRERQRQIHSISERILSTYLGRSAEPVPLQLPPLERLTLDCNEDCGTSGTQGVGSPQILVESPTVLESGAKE

Molecule | Kd [1] [µM] | binding result [2]
Rev (from UniProt P04325) | 1 | 
chimeric rabbit/human Fab SJS-R1 as the selected phage display clone in pC3C (Fab, V domains shown) VH: QEQLVESGGRLVTPGTALTLTCKVSGFSLSGFWLNWVRQAPGKGLEWVGAIYRGSGSEWYASWAKGRFTISDTSTTVTLKLTSPTTEDTATYFCAADTTDNGYFTIWGPGTLVTVSS VL: ELVMTQTPSSVSEPVGGTVTIKCQASQSISSWLSWYQQKPGQPPKLLIYDASNLASGVPSRFMGSGSGTEYTLTISGVQREDAATYYCLGGYPAASYRTAFGGGTELEII |  | binds
